Where no end group is shown, it is not given here.
Target: T1, H558-YFPf (human, UniProt Q14524 538-577)
T1 construct: Expressed in HEK293 cells; also called hNav1.5 protein fragment centered on H558 fused to YFP; not shown: enhanced yellow fluorescent protein from the pEYFP-N3 vector
Experiment: three-channel FRET normalized to CFP, fragments coexpressed in HEK293 cells
Excerpt: Three-channel FRET ratios were normalized to CFP and reported as FRETc as previously described by Vanderklish and colleagues, Proc Natl Acad Sci USA. 2000; 97:2253-2258. […] In all experiments, FRET was absent from the cell membrane, which is consistent with the inability of these protein fragments to traffic to the membrane. […] More importantly, hNav1.5 interaction occurs preferentially when 1 protein expresses R558 and the other expresses H558.

B1: R558-CFPf (other, human, UniProt Q14524 538-577, looked up)
chain: GSEADFADDENSTAGESESHRTSLLVPWPLRRTSAQGQPS
modifications: also: fused to CFP, linker and end not given here
notes: Expressed in HEK293 cells; not shown: enhanced cyan fluorescent protein from the pECFP-N3 vector
  fold increase in FRETc compared with the homotypic FRETc values: 3 fold
